Source: article PMC9616408

Target: SD93 NA K385N/N387K mutant, recombinant NA head domain (residues 82-469) fused to a VASP tetramerization domain (not stated | influenza A virus A/Shandong/9/1993 (H3N2))
Experiment: SEC; HiLoad 16/100 Superdex 200 prep grade, 20 mM Tris-HCl pH 8.0, 100 mM NaCl, 10 mM CaCl2; NA head domain fused to a VASP tetramerization domain

SD93 NA K385N/N387K mutant, recombinant NA head domain (residues 82-469) fused to a VASP tetramerization domain (domain or fragment)
stoichiometry N: 4
